From publication PMC6363478 come the findings set out here.

The assay deals with rat EMILIN1 C-terminus fusion protein in pRSET-A (REM) (rat). Description: SPR. In general terms: SPR reads the build-up and loss of mass on a sensor chip optically.

With “rat organ of Corti CNGA3 C-terminus fusion protein in pRSET-A (RA3-C) (domain or fragment)”, the Kd came to 270 nM.

The Kd is the free concentration of one partner at which half of the binding sites on the other are occupied at equilibrium, for simple one-to-one binding. Low readings indicate tighter binding, high ones weaker binding.
